No end group written: not given here.
How the values were obtained:
[1] = biological target: T1, hemagglutinin of influenza A virus X31 (A/Aichi/2/68 H3N2) (influenza A virus A/Aichi/2/68 H3N2 (X31)), P03437; assay: cell-based or functional assay
[2] = biological target: T1, hemagglutinin of influenza A virus X31 …; assay: SPR competition, virus preincubated with peptide, immobilised fetuin
[3] = biological target: T1, hemagglutinin of influenza A virus X31 …
[4] = biological target: T1, hemagglutinin of influenza A virus X31 …; remark: listed apart in the source

Binder | Hemagglutination inhibition (IC50, HAI) [1] | Mean Ki(HAI), hemagglutination inhibition assay, human erythrocytes [1] | fold lower IC50,RB than the reference peptide SEQ ID NO:1 [2] | IC50 [3] | Kd [4]
KKKKFYGYDVFF (not fully specified (C-terminus)) [peptide with SEQ ID NO:28, N-terminal (Lys)4, C-terminal amide] | 18 µM | 31.9 µM | 4.5 fold | 20 µM | –
KKKKFYDYDVFY (not fully specified (C-terminus)) [reference peptide with SEQ ID NO:1 (FYDYDVFY), N-terminal (Lys)4, C-terminal amide] | 163 µM | 235 µM | – | 90 µM | 59 µM

From patent US20180072770A1, “Influenza Virus Binding Peptides” (priority 2014, published 2018)
